B1: Hairpin Ribozyme (parent)
chain: GUCCUCUUUCACGUGCGCGUGAAAGAGAGAAGUGAACCAGAGAAACACACGUUGUGGUAUAUUACCUGGUA

Variants of: B1
Assay: self-cleavage, relative activity (ratio to wild type); higher = more cleavage; co-transcriptional

Variant	self-cleavage
G42U U52G	0.135
A44U A47U	0.0528
A43G C46U	0.0992
G42C U67C	0.137
A44C A61C	0.288
A44C U62C	0.279
A43U A45G	0.119
A43U A45C	0.0872
A44U G68C	0.148
A44U G68A	0.116
G42A U53A	0.184
A43G G51U	0.245
A41C G42C	0.218
A41C U67A	0.27
A44C G57C	0.215
A44C G57A	0.135
A45C A61C	0.239
A45C A61U	0.186
G42U A44G	0.267
A44G U70A	0
G42U C46G	0.156
A45C A59C	0.358
A45C A59U	0.151
G42U G69C	0.136

Variant	self-cleavage
G42U G69U	0.136
G42U G69A	0.142
A43C A45U	0.203
A43C A45G	0.116
A44C A49G	0.22
A41U A45C	0.258
A41G A64C	0.0864
A41G A64U	0.206
A43U A64G	0.159
G42U G68U	0.14
A44C A47C	0.121
G42A G69U	0.219
G42U A47U	0.12
G42U A47C	0.22
G42U A47G	0.107
A43C C48A	0.135
A41U C46U	0.0994
G42C A43C	0.137
A41G U55A	0.228
A44C U53G	0.0885
G42A A49C	0.168
G42A A49U	0.11
A43U U63G	0.307
A43G C65U	0.224

Variant	self-cleavage
A41G U52A	0.669
G42C U63A	0.18
A44C U70C	0.176
A44C U70A	0.109
A41C U53A	0.786
A44U U58A	0.0794
A44U U58C	0.177
A41G C50U	0.385
A41G C50G	0.325
G42C A47C	0.149
A41G A44C	0.109
G42A	0.223
G42U	0.289
G42C	0.318
A44U C65U	0.14
G42U C66U	0.232
G42U C66G	0.155
A44C C50U	0.15
A41C G54U	0.724
G42C G51A	0.415
A44G G57U	0.022
A44G G57C	0.148
G42C C65G	0.117
G42C C65U	0.215

Variant	self-cleavage
A41G U60A	0.761
G42C A71C	0.664
A41C G69U	0.341
A41C G69C	0.287
A41C G69A	0.524
A44G G68A	0.155
A44G G68C	0.244
G42C C46G	0.103
G42A A59C	0.195
A43G A45U	0.0816
A43U A59C	0.12
A44U G57U	0.206
A44U G57C	0.0924
G42A C65U	0.103
G42A C65A	0.0752
G42A C65G	0.132
A43U G54U	0.129
A44U C46G	0.0928
A45C G54C	0.137
A43C U63G	0.117
G42C G57C	0.0624
G42C G57A	0.1
G42A C46G	0.106
A43U G57C	0.17

Variant	self-cleavage
A43G U67A	0.125
G42A A71G	0.296
A41U A59U	0.241
A43C A59G	0.284
G42C A61C	0.133
A44G U60A	0.171
G42U U70G	0.105
A44U G51A	0.157
A44U G51U	0.096
A44U G51C	0.246
A44U U60G	0.179
A41G G56C	0.165
A41U U70C	1.42
A41C G56U	0.0688
A43U C48G	0.166
A43U C48U	0.162
A43U G68C	0.106
G42C C50U	0.0822
G42C C50G	0.0792
A41U A61U	0.399
A41U A61G	0.148
G42A A43G	0.0927
A43U U58C	0.189
A44G U52A	0.246

Variant	self-cleavage
A41G U67A	0.527
A41U G68A	0.504
G42U G56A	0.231
A44U G56C	0.239
A43G A59U	0.157
A43G A59C	0.153
A43G A64C	0.191
A41U A47C	0.955
A43G G57C	0.195
A41G U58G	1.1
A44G C66U	0.0408
A41G U63A	0.328
A41U A71U	1.15
A44U U70A	0.0951
A44U U70C	0.0872
A44C C65G	0.17
A44C A71G	0.211
G42A A47U	0.0842
G42A A64G	0.141
A43C U70A	0.0723
A44G U67G	0.149
A44G U67A	0.161
G42A G56A	0.191
G42A G56U	0.13

Variant	self-cleavage
A41C U55G	0.285
G42U A64U	0.186
G42U A64C	0.18
G42U A64G	0.154
G42U C48G	0.134
A41U U60C	1.24
A41G U62G	0.325
A44C U58C	0.141
A44C U58G	0.128
A43U U67G	0.0666
A43U U67A	0.0806
G42C U60A	0.133
G42C U60G	0.211
A44G G54U	0.16
A41C C48A	0.218
G42C U58G	0.289
A44G G69U	0.0884
A44G G69C	0.196
G42U U67C	0.131
G42C U53G	0.244
G42U A49U	0.24
A43U A44C	0.157
A43U A44U	0.141

From the RNAGym collection of RNA variant scans (doi:10.7554/elife.80360)
